The numbers were not newly measured in paper PMC10359924, which cites them from elsewhere.

The target in data set [1] is IL-4Rα (Homo sapiens) (UniProt P24394).
For data set [2], the target named is IL-13Rα1 (Homo sapiens) (UniProt P78552).
The target in the next data set is γc (Homo sapiens) (UniProt P31785).
In data set [3] the target is IL-13Rα1 (Homo sapiens) (UniProt P78552). This is another data set of the same source.
The target of data set [4] is IL-4Rα (Homo sapiens) (UniProt P24394). The source holds these as a separate data set.

Read-outs that look alike come from different tables or passages of the source.

IL-4/IL-4Rα complex, sequence (P05112 25-153): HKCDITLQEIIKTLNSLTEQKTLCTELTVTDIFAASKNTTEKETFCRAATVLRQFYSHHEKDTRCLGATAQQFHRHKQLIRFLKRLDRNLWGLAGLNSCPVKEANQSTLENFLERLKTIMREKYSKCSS
IL-4/IL-4Rα complex, sequence (P24394 26-232, further chain): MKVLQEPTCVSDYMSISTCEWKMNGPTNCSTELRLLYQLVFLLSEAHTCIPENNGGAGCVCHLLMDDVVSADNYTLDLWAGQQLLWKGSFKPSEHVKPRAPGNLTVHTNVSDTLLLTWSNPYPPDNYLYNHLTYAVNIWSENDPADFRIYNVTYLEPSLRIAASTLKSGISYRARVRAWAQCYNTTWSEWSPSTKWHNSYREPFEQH
IL-13Rα1 (Homo sapiens), sequence (P78552 22-343): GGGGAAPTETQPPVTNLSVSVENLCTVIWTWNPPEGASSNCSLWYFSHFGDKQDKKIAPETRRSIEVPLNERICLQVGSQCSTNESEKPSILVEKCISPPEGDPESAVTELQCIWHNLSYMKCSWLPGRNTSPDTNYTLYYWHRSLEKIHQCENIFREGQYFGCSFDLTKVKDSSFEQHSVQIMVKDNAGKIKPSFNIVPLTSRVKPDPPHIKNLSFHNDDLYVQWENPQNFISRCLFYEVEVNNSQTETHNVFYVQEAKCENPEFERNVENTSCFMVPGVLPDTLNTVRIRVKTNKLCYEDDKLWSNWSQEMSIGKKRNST
IL-4Rα (Homo sapiens), sequence (P24394 26-232): as the sequence (P24394 26-232, further chain) above
IL-4, sequence (P05112 25-153): as the sequence (P05112 25-153) above
γc (Homo sapiens), sequence (P31785 23-262): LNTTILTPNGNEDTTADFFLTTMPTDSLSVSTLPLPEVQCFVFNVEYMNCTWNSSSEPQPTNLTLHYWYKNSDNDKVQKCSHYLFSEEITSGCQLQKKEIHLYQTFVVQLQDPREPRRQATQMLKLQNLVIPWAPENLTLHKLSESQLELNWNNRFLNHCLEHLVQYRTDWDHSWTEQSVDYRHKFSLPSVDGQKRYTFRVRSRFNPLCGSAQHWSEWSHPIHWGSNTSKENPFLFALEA
IL-13/IL-13Rα1 complex, sequence (P35225 25-146): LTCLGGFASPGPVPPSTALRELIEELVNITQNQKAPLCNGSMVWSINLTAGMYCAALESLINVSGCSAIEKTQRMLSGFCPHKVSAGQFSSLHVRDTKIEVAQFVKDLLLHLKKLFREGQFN
IL-13/IL-13Rα1 complex, sequence (P78552 22-343, further chain): as the sequence (P78552 22-343) above
IL-13, sequence (P35225 25-146): as the sequence (P35225 25-146) above

What is called Kd is the equilibrium constant for the complex coming apart. Turning to IL-4 (from UniProt P05112), the equilibrium dissociation constant (Kd) with IL-4Rα (Homo sapiens) [1] is 1 nM.

Consider “IL-4/IL-4Rα complex (from UniProt P05112)”, for which the Kd was 487 nM in the data set with IL-13Rα1 (Homo sapiens) [2] and 559 nM with γc (Homo sapiens).

IL-13 (from UniProt P35225): the Kd with IL-13Rα1 (Homo sapiens) [3] is 30 nM.

Take “IL-13/IL-13Rα1 complex (from UniProt P35225)”: in the data set with IL-4Rα (Homo sapiens) [4], the Kd was 20 nM.
